Publication PMC7060403 (Journal of molecular biology, 2019)

T1: RavP-N (N-terminal region of the rabies virus phosphoprotein, residues 1-152) (rabies virus, UniProt P22363 1-152)
T1 sequence: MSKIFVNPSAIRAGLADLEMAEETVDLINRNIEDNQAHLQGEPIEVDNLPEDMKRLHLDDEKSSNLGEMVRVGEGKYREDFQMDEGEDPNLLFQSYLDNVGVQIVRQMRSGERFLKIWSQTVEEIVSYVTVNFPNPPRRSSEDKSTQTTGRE

B1: full-length rabies virus phosphoprotein (RavP-FL, residues 1-297) (natural protein)
chain: MSKIFVNPSAIRAGLADLEMAEETVDLINRNIEDNQAHLQGEPIEVDNLPEDMKRLHLDDEKSSNLGEMVRVGEGKYREDFQMDEGEDPNLLFQSYLDNVGVQIVRQMRSGERFLKIWSQTVEEIVSYVTVNFPNPPRRSSEDKSTQTTGRELKKETTSAFSQRESQPSKARMVAQVAPGPPALEWSATNEEDDLSVEAEIAHQIAESFSKKYKFPSRSSGIFLYNFEQLKMNLDDIVKEAKNVPGVTRLAHDGSKIPLRCVLGWVALANSKKFQLLVEADKLSKIMQDDLNRYTSC

Columns and labels:
[1] = molecular target: T1, RavP-N (N-terminal region of the rabies …); assay: ITC
[2] = molecular target: B1; assay: ITC
SEC-MALS = molecular target: the molecule itself; assay: SEC-MALS

| Binder | Kd [1] [nM] | Kd [2] [nM] | stoichiometry N [2] | stoichiometry N (SEC-MALS) |
| --- | --- | --- | --- | --- |
| LC8 from Drosophila melanogaster (natural protein, UniProt Q24117 1-89, looked up) MSDRKAVIKNADMSEEMQQDAVDCATQALEKYNIEKDIAAYIKKEFDKKYNPTWHCIVGRNFGSYVTHETRHFIYFYLGQVAILLFKSG | 30 | 82 | 1 | – |
| B1 | – | – | – | 2 |
